Assays:
[1] = biological target: T1, human neonatal Fc-receptor (FcRn), soluble extracellular domain with His-Avi Tag, co-expressed with … (human, UniProt P55899 24-297; P61769 21-119, biotinylated (Avi Tag) for the affinity column); assay: FcRn affinity chromatography
T1 construct: SPR: amine-coupled to a CM5 chip (400 RU), pH 6.0; also called huFcRn; FcRn/beta2-microglobulin
Experimental: Antibody samples containing 50 to 100 μg of protein were adjusted to pH 5.5 and applied to the FcRn column using ÄKTA explorer 10 XT or Dionex Summit (Dionex, Idstein, Germany). The column with 5 cm bed height was then washed with 5-10 column volumes of equilibration buffer 20 mM MES, 150 mM NaCl, pH 5.5. […] For complete elution of modified antibodies, the pH was increased in the gradient up to pH 8.8. The experiments were carried out at room temperature. The elution profile was obtained by continuous measurement of the absorbance at 280 nm. The time taken for an analyte peak, X, to reach the detector after sample injection was called the retention time.

[2] = biological target: T1, human neonatal Fc-receptor (FcRn), …; assay: SPR (BIAcore T100), FcRn immobilized on CM5 chip by amine coupling (400 RU), 200 nM antibody injected, PBS 0.05% Tween-20 pH 6.0, room temperature
Experimental: The binding properties of wild-type antibody and the mutants to FcRn were analyzed by surface plasmon resonance (SPR) technology using a BIAcore T100 instrument (BIAcore AB, Uppsala, Sweden). […] In the current assay, the FcRn receptor was immobilized onto a BIAcore CM5-biosensor chip (GE Healthcare Bioscience, Uppsala, Sweden) via amine coupling to a level of 400 Response units (RU). The assay was carried out at room temperature with PBS, 0.05% Tween-20TM pH 6.0 (GE Healthcare Bioscience) as running and dilution buffer. 200 nM of antibody samples were injected at a flow rate of 50 μL/min at room temperature. Association time was 180 seconds, dissociation phase took 360 seconds. Regeneration of the chip surface was reached by a short injection of HBS-P, pH 8.0. Evaluation of SPR-data was performed by comparison of the biological response signal height at 180 seconds after injection and at 300 seconds after injection. The corresponding parameters are the RU max level (180 seconds after injection) and late stability (300 seconds after end of injection).

T1 sequence (P55899 24-297 limits assumed, chain 1 of 2): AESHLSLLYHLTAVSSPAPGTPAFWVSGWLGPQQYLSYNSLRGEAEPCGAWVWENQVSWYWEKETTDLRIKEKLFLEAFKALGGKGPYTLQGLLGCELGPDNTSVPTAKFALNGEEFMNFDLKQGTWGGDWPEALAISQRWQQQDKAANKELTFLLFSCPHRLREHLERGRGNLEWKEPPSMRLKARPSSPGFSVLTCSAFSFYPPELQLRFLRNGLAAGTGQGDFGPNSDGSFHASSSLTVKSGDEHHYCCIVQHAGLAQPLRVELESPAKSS
T1 sequence (P61769 21-119 limits assumed, chain 2 of 2): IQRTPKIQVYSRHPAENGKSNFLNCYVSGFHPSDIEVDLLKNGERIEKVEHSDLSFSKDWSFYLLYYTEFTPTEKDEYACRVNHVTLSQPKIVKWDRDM

| Binder | retention time on FcRn affinity column [1] | binding result [2] |
| --- | --- | --- |
| <IGF-1R> IgG1 knob wt, hole H310A, H433A, Y436A (antibody, also called IGF-1R 0035; anti-IGF-1R antibody (knobs-into-holes), one chain with H310A/H433A/Y436A) light: not shown heavy 1: not shown heavy 2: QVELVESGGGVVQPGRSQRLSCAASGFTFSSYGMHWVRQAPGKGLEWVAIIWFDGSSTYYADSVRGRFTISRDNSKNTLYLQMNSLRAEDTAVYFCARELGRRYFDLWGRGTLVSVSSASTKGPSVFPLAPSSKSTSGGTAALGCLVKDYFPEPVTVSWNSGALTSGVHTFPAVLQSSGLYSLSSVVTVPSSSLGTQTYICNVNHKPSNTKVDKKVEPKSCDKTHTCPPCPAPELLGGPSVFLFPPKPKDTLMISRTPEVTCVVVDVSHEDPEVKFNWYVDGVEVHNAKTKPREEQYNSTYRVVSVLTVLAQDWLNGKEYKCKVSNKALPAPIEKTISKAKGQPREPQVCTLPPSRDELTKNQVSLSCAVKGFYPSDIAVEWESNGQPENNYKTTPPVLDSDGSFFLVSKLTVDKSRWQQGNVFSCSVMHEALANHATQKSLSLSPGK | 42.4 min | – |
| <IGF-1R> IgG1 knob wt, hole M252Y, S254T, T256E (antibody, T0033 lists L234A/L235A/P329G for IGF-1R 0036; also called IGF-1R 0036; anti-IGF-1R antibody (knobs-into-holes), one chain with M252Y/S254T/T256E) light: not shown heavy 1: not shown heavy 2: QVELVESGGGVVQPGRSQRLSCAASGFTFSSYGMHWVRQAPGKGLEWVAIIWFDGSSTYYADSVRGRFTISRDNSKNTLYLQMNSLRAEDTAVYFCARELGRRYFDLWGRGTLVSVSSASTKGPSVFPLAPSSKSTSGGTAALGCLVKDYFPEPVTVSWNSGALTSGVHTFPAVLQSSGLYSLSSVVTVPSSSLGTQTYICNVNHKPSNTKVDKKVEPKSCDKTHTCPPCPAPELLGGPSVFLFPPKPKDTLYITREPEVTCVVVDVSHEDPEVKFNWYVDGVEVHNAKTKPREEQYNSTYRVVSVLTVLHQDWLNGKEYKCKVSNKALPAPIEKTISKAKGQPREPQVCTLPPSRDELTKNQVSLSCAVKGFYPSDIAVEWESNGQPENNYKTTPPVLDSDGSFFLVSKLTVDKSRWQQGNVFSCSVMHEALHNHYTQKSLSLSPGK | 57.6 min | – |
| <IGF-1R> IgG1 knob wt, hole L251D, L314D, L432D (antibody, T0033 lists L234A/L235A/P329G for IGF-1R 0037; also called IGF-1R 0037; anti-IGF-1R antibody (knobs-into-holes), one chain with L251D/L314D/L432D) light: not shown heavy 1: not shown heavy 2: QVELVESGGGVVQPGRSQRLSCAASGFTFSSYGMHWVRQAPGKGLEWVAIIWFDGSSTYYADSVRGRFTISRDNSKNTLYLQMNSLRAEDTAVYFCARELGRRYFDLWGRGTLVSVSSASTKGPSVFPLAPSSKSTSGGTAALGCLVKDYFPEPVTVSWNSGALTSGVHTFPAVLQSSGLYSLSSVVTVPSSSLGTQTYICNVNHKPSNTKVDKKVEPKSCDKTHTCPPCPAPELLGGPSVFLFPPKPKDTDMISRTPEVTCVVVDVSHEDPEVKFNWYVDGVEVHNAKTKPREEQYNSTYRVVSVLTVLHQDWDNGKEYKCKVSNKALPAPIEKTISKAKGQPREPQVCTLPPSRDELTKNQVSLSCAVKGFYPSDIAVEWESNGQPENNYKTTPPVLDSDGSFFLVSKLTVDKSRWQQGNVFSCSVMHEADHNHYTQKSLSLSPGK | 40.9 min | – |
| <IgF-1R> IgG1 knob wt, hole I253A, H310A, H435A (antibody, T0033 lists L234A/L235A/P329G for IGF-1R 0034; also called IGF-1R 0034; anti-IGF-1R antibody (knobs-into-holes), one chain with I253A/H310A/H435A) light: not shown heavy 1: not shown heavy 2: QVELVESGGGVVQPGRSQRLSCAASGFTFSSYGMHWVRQAPGKGLEWVAIIWFDGSSTYYADSVRGRFTISRDNSKNTLYLQMNSLRAEDTAVYFCARELGRRYFDLWGRGTLVSVSSASTKGPSVFPLAPSSKSTSGGTAALGCLVKDYFPEPVTVSWNSGALTSGVHTFPAVLQSSGLYSLSSVVTVPSSSLGTQTYICNVNHKPSNTKVDKKVEPKSCDKTHTCPPCPAPELLGGPSVFLFPPKPKDTLMASRTPEVTCVVVDVSHEDPEVKFNWYVDGVEVHNAKTKPREEQYNSTYRVVSVLTVLAQDWLNGKEYKCKVSNKALPAPIEKTISKAKGQPREPQVCTLPPSRDELTKNQVSLSCAVKGFYPSDIAVEWESNGQPENNYKTTPPVLDSDGSFFLVSKLTVDKSRWQQGNVFSCSVMHEALHNAYTQKSLSLSPGK | 42 min | – |
| <IGF-1R> IgG1 with M252Y, S254T, T256E (antibody, also called YTE-mutant of anti-IGF-1R antibody) light: not shown heavy: QVELVESGGGVVQPGRSQRLSCAASGFTFSSYGMHWVRQAPGKGLEWVAIIWFDGSSTYYADSVRGRFTISRDNSKNTLYLQMNSLRAEDTAVYFCARELGRRYFDLWGRGTLVSVSSASTKGPSVFPLAPSSKSTSGGTAALGCLVKDYFPEPVTVSWNSGALTSGVHTFPAVLQSSGLYSLSSVVTVPSSSLGTQTYICNVNHKPSNTKVDKKVEPKSCDKTHTCPPCPAPELLGGPSVFLFPPKPKDTLYITREPEVTCVVVDVSHEDPEVKFNWYVDGVEVHNAKTKPREEQYNSTYRVVSVLTVLHQDWLNGKEYKCKVSNKALPAPIEKTISKAKGQPREPQVYTLPPSRDELTKNQVSLTCLVKGFYPSDIAVEWESNGQPENNYKTTPPVLDSDGSFFLYSKLTVDKSRWQQGNVFSCSVMHEALHNHYTQKSLSLSPG | – | binds |

Source: patent US20160151487A1 (Hoffmann-La Roche, published 2016)
